From US20260062487A1 (GRITSTONE BIO, published 2026)

How the values were obtained:
[1] = biological target: T1, biotinylated refolded A*01:01/b2m with … (alanine at position 9) (human, UniProt P61769 21-119); experiment: BLI (Octet), biotinylated pHLA on streptavidin sensor
Method: (§1) All the assay conditions were prepared in a volume of 200 μL. The pHLA complex biotinylated at the C-terminal AviTag was used to ensure uniform directionality of the protein. […] Using the ForteBio Data Analysis suite, the data was normalized to the association curves followed by background normalization. Curve fitting using global fitting of the sensor data with the Octet™ software using 1:1 kinetic model with errors within 10%, X2below 3, and R2above 0.9 to determine the association and dissociation constants.

[2] = biological target: biotinylated refolded A*01:01/b2m with … (alanine at position 8) (human, UniProt P61769 21-119); experiment: BLI (Octet), biotinylated pHLA on streptavidin sensor, antibody as analyte;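 further: pHLA biotinylated through a C-terminal AviTag for uniform orientation, sensor data background-normalized, rate constants from global 1:1 kinetic fitting in Octet software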
Method: as §1

[3] = biological target: biotinylated refolded A*01:01/b2m with … (Ala 5) (human, UniProt P61769 21-119); experiment: as above
Method: as §1

[4] = biological target: biotinylated refolded A*01:01/b2m with … (Ala 6) (human, UniProt P61769 21-119); experiment: as above
Method: as §1

[5] = biological target: T2, biotinylated refolded G2-pHLA (A*01:01/b2m/…) (human, biotinylated at the C-terminal AviTag); experiment: as above
T2 construct: Soluble complex caught on streptavidin sensors or MSD plates; also called G2-peptide A*01:01/b2m complex; WT
Method: as §1

[6] = biological target: biotinylated refolded A*01:01/b2m with […] (Ala 3) (human, UniProt P61769 21-119, biotinylated at the C-terminal AviTag); experiment: as above
Method: as §1

[7] = biological target: biotinylated refolded A*01:01/b2m with … (Ala 2) (human, UniProt P61769 21-119); experiment: as above
Method: as §1

[8] = biological target: biotinylated refolded A*01:01/b2m with … (Ala 1) (human, UniProt P61769 21-119); experiment: as above
Method: as §1

[9] = biological target: biotinylated refolded A*01:01/b2m with … (Ala 4) (human, UniProt P61769 21-119); experiment: as above
Method: as §1

[10] = biological target: T1, biotinylated refolded A*01:01/b2m with …; experiment: as above
Method: as §1

B1: monovalent Format 3-E07-hOKT3a antibody (bispecific antibody, V domains shown)
VH 1: QVQLVQSGAEVKKPGASVKVSCKASGFTFTNYLIHWVRQAPGQGLEWMGWINPNSGGTNYAQRLQGRVTMTRDTSTSTVYMELSSLRSEDTAVYYCARDYGAGNDYWGQGTLVTVSS
VL 1: DIQMTQSPSSLSASVGDRVTITCRASQEIRRWLAWYQQKPGKAPKLLIYAASNLQSGVPSRFSGSGSGTDFTLTISSLQPEDFATYYCQQSYSTPYTFGQGTKLEIK
VH 2: QVQLVQSGAEVKKPGASVKVSCKASGYTFTRYTMHWVRQAPGQGLEWMGYINPSRGYTNYNQKFKDRVTLTTDKSSSTAYMELSSLRSEDTAVYYCARYYDDHYSLDYWGQGTLVTVSS
VL 2: DIQMTQSPSSLSASVGDRVTITCSASSSVSYMNWYQQKPGKAPKRLIYDTSKLASGVPSRFSGSGSGTDFTLTISSLQPEDFATYYCQQWSSNPFTFGQGTKLEIK
[1]
  binding result: no binding (tested: typically 500-0 nM antibody)
[2]
  Fold change in affinity (against WT): 6.7 fold
  Kd: 8 nM
  Max Response (nm): 0.24 nm
[3]
  Fold change in affinity (against WT): 13.3 fold
  Kd: 16 nM
  Max Response (nm): 0.21 nm
[4]
  Fold change in Response (against WT): 2.7 fold
  Fold change in affinity (against WT): 13.3 fold
  Kd: 16 nM
  Max Response (nm): 0.09 nm
[5]
  Kd: 1.2 nM
  Max Response (nm): 0.24 nm
[6]
  Fold change in Response (against WT): 1.6 fold
  Fold change in affinity (against WT): 14.2 fold
  Kd: 17 nM
  Max Response (nm): 0.15 nm
[7]
  Kd: 1.5 nM
  Max Response (nm): 0.24 nm
[8]
  Fold change in affinity (against WT): 2.5 fold
  Kd: 3 nM
  Max Response (nm): 0.26 nm
[9]
  Fold change in affinity (against WT): 7.3 fold
  Kd: 8.7 nM
  Max Response (nm): 0.24 nm
[10]
  Max Response (nm): 0 nm
